# Laboratory results taken from patent US20100298202A1, “BRI POLYPEPTIDES AND REDUCING AB AGGREGATION” (MAYO FOUNDATION FOR MEDICAL EDUCATION AND RESEARCH, priority 2007, published 2010).
# Biological target: Aβ42 (Homo sapiens, UniProt P05067)
# Test: Aβ42 aggregation with oxidized or reduced BRI polypeptides (native gel/western blot, ELISA-based assay)
# Format: biochemical
# Conditions: oxidized form (no DTT), 2 μM polypeptide, 1.5 μM Aβ42, 5 hours at 37° C.
# Experimental: FIG. 10. […] BRI polypeptides in DMSO were diluted into 150 mM NaCl, 20 mM Tris-HCl, pH7.4 (TBS) at a final concentration of 2 μM in the absence (OX) or presence (RED) of 2 mM DTT. Mixtures were incubated for 10 minutes at room temperature and then chilled to 0° C. A control samples lacking any BRI polypeptide were prepared identically using DMSO alone. Aβ42 in DMSO then was added to a final concentration of 1.5 μM, and the mixtures divided into two aliquots. One aliquot was incubated for 5 hours at 0° C., and the other was incubated at 37° C. to induce Aβ42 aggregation. At the end of the incubation, all samples were returned to 0° C. to stop further aggregation prior to analysis. Aggregation was assessed either by native gel electrophoresis followed by western blotting (panel A) or by the ELISA-based assay (panel B).
# Aβ42, sequence (P05067 672-713 limits assumed): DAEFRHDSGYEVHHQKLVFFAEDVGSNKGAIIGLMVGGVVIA
row,Substance,Aβ42 aggregation in vitro
1,"Bri24: C-terminal fragment of BRI1 (ITM2A), AIDKCWKIRHFPNEFIVETICICQD (SEQ ID NO: 5)",inhibit Aβ42 aggregation
2,"Bri25: C-terminal fragment of BRI3 (ITM2C), GAICNCNAIRHFENTFVVETLICGVV (SEQ ID NO: 6)",inhibit Aβ42 aggregation
